Measured values from patent publication US20240368233A1 (University of Washington, published 2024).

Assays:
[1] = target: T1, LHD202 chainB, split luciferase reporter construct; experiment: split luciferase association kinetics, 1 nM vs. 10 nM, in lysate
T1 construct: not shown: N-terminal Strep-tag and sfGFP; GS-linker and smBiT or lgBiT
T1 chain: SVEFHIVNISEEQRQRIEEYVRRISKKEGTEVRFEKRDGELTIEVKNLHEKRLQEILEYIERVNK
Protocol: Assays were performed in 20 mM sodium phosphate, 100 mM NaCl, pH 7.4, 0.05% v/v Tween 20. Reactions were assembled in 96 well plates (Corning, cat #3686) in the presence of Nano-Glo™ substrate (Promega, cat. #N1130) diluted 100× or 500× for kinetics and endpoint measurements respectively (see supplement for detailed information). Luminescence was recorded on a Synergy Neo2 plate reader (BioTek). Kinetic assays were performed under pseudo first-order conditions, with the final concentration of one protein at 1 nM and the other at 10 nM. Dead times between substrate addition and data acquisition were typically 15-30 s. For long kinetic measurements (FIG. 11A), mastermixes of the protein complexes were made and aliquots were sampled at regular intervals. Data were fitted to a single exponential decay function: […]

298B [2] = target: T2, 298B; experiment: BLI, steady state fit
T2 construct: also called LHD298 B; LHD298 chainB
T2 chain: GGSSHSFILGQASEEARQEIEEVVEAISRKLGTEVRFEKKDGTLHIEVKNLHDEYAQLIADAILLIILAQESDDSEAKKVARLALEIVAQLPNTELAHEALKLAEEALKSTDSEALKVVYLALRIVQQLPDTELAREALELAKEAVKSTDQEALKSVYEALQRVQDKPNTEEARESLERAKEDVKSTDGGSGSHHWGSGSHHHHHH
Protocol: (§1) Biolayer interferometry experiments were performed on an OctetRED96 BLI system (ForteBio, Menlo Park, CA). Streptavidin coated biosensors were first equilibrated for at least 10 minutes in Octet buffer (10 mM HEPES pH 7.4, 150 mM NaCl, 3 mM EDTA, 0.05% Surfactant P20) supplemented with 1 mg/ml Bovine Serum Albumin (SigmaAldrich). Enzymatically biotinylated designs were immobilized onto the biosensors by dipping the biosensors into a solution with 10-50 nM protein for 30-120 s. This was followed by dipping in fresh octet buffer to establish a baseline for 120 s. Titration experiments were performed at 25° C. while rotating at 1,000 r.p.m. Association of designs was allowed by dipping biosensors in solutions containing designed protein diluted in octet buffer until equilibrium was approached followed by dissociation by dipping the biosensors into fresh buffer solution in order to monitor the dissociation kinetics. Steady-state and global kinetic fits were performed using the manufacturer's software (Data Analysis 9.1) assuming a 1:1 binding model.

298B [3] = target: T2, 298B; experiment: BLI, global kinetic fit, 1:1 model
Protocol: as §1

278B [4] = target: T3, 278B; experiment: BLI, steady state fit
T3 construct: also called LHD278 B; LHD278 chainB
T3 chain: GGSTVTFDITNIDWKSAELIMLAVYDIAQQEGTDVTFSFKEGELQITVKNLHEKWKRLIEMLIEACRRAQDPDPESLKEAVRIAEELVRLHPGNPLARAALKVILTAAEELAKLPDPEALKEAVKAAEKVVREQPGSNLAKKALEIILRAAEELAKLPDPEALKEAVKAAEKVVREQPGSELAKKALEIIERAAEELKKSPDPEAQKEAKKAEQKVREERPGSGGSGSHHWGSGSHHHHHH
Protocol: as §1

278B [5] = target: T3, 278B; experiment: BLI, global kinetic fit, 1:1 model
Protocol: as §1

[6] = target: the molecule itself; experiment: SEC titration of the protomer alone at several injection concentrations (Superdex 75, normalised A230); self-association
275B [7] = target: T4, 275B; experiment: BLI, steady state fit
T4 construct: also called LHD275 B; LHD275B
T4 chain: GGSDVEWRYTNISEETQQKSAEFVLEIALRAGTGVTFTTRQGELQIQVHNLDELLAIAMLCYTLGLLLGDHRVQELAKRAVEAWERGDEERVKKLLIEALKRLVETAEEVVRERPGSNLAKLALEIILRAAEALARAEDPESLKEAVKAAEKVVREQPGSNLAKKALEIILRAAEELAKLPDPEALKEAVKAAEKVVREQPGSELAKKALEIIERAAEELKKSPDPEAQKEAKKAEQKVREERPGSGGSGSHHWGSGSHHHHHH
Protocol: as §1

275B [8] = target: T4, 275B; experiment: BLI, global kinetic fit, 1:1 model
Protocol: as §1

317B [9] = target: T5, 317B; experiment: BLI, steady state fit
T5 construct: also called LHD317 B; LHD317B
T5 chain: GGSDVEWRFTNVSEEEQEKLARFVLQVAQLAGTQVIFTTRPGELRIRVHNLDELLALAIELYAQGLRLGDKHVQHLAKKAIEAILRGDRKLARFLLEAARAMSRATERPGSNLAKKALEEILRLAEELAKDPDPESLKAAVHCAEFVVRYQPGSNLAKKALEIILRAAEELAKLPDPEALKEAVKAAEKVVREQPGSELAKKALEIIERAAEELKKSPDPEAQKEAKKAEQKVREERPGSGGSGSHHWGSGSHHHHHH
Protocol: as §1

317B [10] = target: T5, 317B; experiment: BLI, global kinetic fit, 1:1 model
Protocol: as §1

B1: LHD202 chainA, split luciferase reporter construct (designed binder)
chain: GRQEKVLKSIEETVRKMGVTMETHRSGNKVKVVIKGLHESQQEQLRKDVHETLRKQGVVAVTQKHGDTVTIYVTE
notes: not shown: N-terminal Strep-tag and sfGFP; GS-linker and smBiT or lgBiT
kobs [1]: 0.018 s⁻¹

B2: LHD298 chainA (designed binder)
chain: GRQEKVLKSIEETVRKMGVTMETHRSGNTVKVVIKGLHESQQEQLHKDVEETVQKEGVFVLVSHHGDTVTIQVYE
notes: also called LHD298A
Kd (298B [2]): 16 nM | Kd (298B [3]): 3.5 nM | koff (298B [3]): 0.00022 s⁻¹ | kon (298B [3]): 64000 M⁻¹ s⁻¹

B3: LHD278 chainA (designed binder)
chain: GRQEKVLKSIEETVRKMGVRMLTHRGGNAVIVVIEGLHPSQIKQLMQDVIKTAKKQGVTVTITVSGDIVVIMVVVGASDEEQEEARRLVQEIARALQEAKRKGANEEQLEQLLRELLERAEREG
notes: also called LHD278A
Kd (278B [4]): 3.4 nM | Kd (278B [5]): 0.8 nM | koff (278B [5]): 0.00022 s⁻¹ | kon (278B [5]): 290000 M⁻¹ s⁻¹ | binding result [6]: no binding (tested: 52.4 uM)

B4: LHD275 chainA (designed binder)
chain: GRQEKVLKSIEETVRKMGVEMLTFRAGNAVIVVIRGLHPEQAKQLLRDVSQTAHKQGVTVTLTFHGDVVFILVLVGASEEEQKHMQERIQELARIIHEAKRRGVSEEQLREIAEKMAKEIQEWG
notes: also called LHD275A
Kd (275B [7]): 4.5 nM | Kd (275B [8]): 2.9 nM | koff (275B [8]): 0.00041 s⁻¹ | kon (275B [8]): 140000 M⁻¹ s⁻¹ | binding result [6]: no binding (tested: 8.0 uM)

B5: LHD317 chainA (designed binder)
chain: GRQEKVLKSIEETVRKMGVRMLTHRGGNAVIVVIEGLHPSQAEQLLRDVHRTAKKQGVTVHLVFTGDIVVIMVVVGASEEEQEEMHRLVREIAEALHEAKRKGANEEQLEQLLRELLERAEREG
notes: also called LHD317A
Kd (317B [9]): 56 nM | Kd (317B [10]): 34.7 nM | koff (317B [10]): 0.0051 s⁻¹ | kon (317B [10]): 150000 M⁻¹ s⁻¹ | binding result [6]: no binding (tested: 57.4 uM)
